The test system of the data set is SOX2 DNA-binding domain (human). In words: PIC-NIC microarray. The conditions noted are these: Protein-specific binding buffers (Supplementary Methods, not in the material), PBM incubation 1 h at room temperature, hybridization simulated at 150 mM Na+ ….

For two substances, binding signal (fold (reference)) and binding signal (fold signal vs intact duplex) results are on record in article PMC13193136.

SOX2 site intact yielded a binding signal (fold (reference)) of 1.
For the substance SOX2 site nick 3, 5'P retained, under “nick at position 3, 5' phosphate”, the binding signal (fold signal vs intact duplex) is 3.
